{"source": "paper PMC6902690", "about": "(The FASEB Journal, 2019)", "binders": {"B1": {"name": "huFab 1E6 (recombinant Fab produced in E. coli) (Fab, V domains shown)", "VH": "EVQLVQSGAEVKKPGSSVKVSCKASGGTVIDYPITWVRQAPGQGLEWVGGFVPLFRTSNYGQKFQGRVTITADKSTSTASMELNSLTSEDTAIYYCARGDTAMGPFDYWGQGTLVTVSS", "VL": "SYVLTQPPSLSVAPGKTATLTCGGNNIAGKTVHWYQQRPGQAPVLVISYDSDRPSGIPERFSGSNSANTATLTISRVEAGDEADYYCQVWDRNSDHWVFGGGTKLTVL"}}, "target": "factor H binding protein variant 1, recombinant (Neisseria meningitidis serogroup B …, UniProt Q9JXV4, strain)", "assay": "Gyrolab immunoassay; biotinylated fHbp v1, v2 or v3 as capture reagent (100 µg/ml); Fabs at 10 µg/ml in Rexxip H; detection with goat anti-human IgG Fab fragment specific-Alexa 647 (25 nM); Bioaffy 200 CDs, 3-step method; positive when the fluorescent signal was higher than 10", "conditions": "both partners purified", "data": [{"binder": "B1", "values": [{"measurement": "binding result", "value": "binds"}]}]}
